Consider 15 sequences from the DeepSol protein solubility set.

This series can be described thus: soluble on expression in E. coli; label from the status in PepcDB or PDB records.
“MPNYLENVKDAAAIIASARRIMVVGCSGGGKSTLSQKLAAAFGLRYISMDRDIFWLPGWQLRPREEQRQRIAAVVTEDRWLMDGSNPSSFDLRLPRTDIVLWVRMPRWLCLWGAVSRIVKGYGKARPEMAAGCPERIDLDFLRYIWNFERRHTPVFEESFALHGPNVPIFQLKSRKQIRRLLDLLVVEDLEHHHHHH”: the “soluble on expression in E. coli” value is “soluble”.
For “MPPASLTFEPPSVVAVFATHAVLCWEQPRTPHTTSFAEHMAWEYQIEYNCSCRVRQQPYCATGSNTFVLLATPHEGETYYVRVVAKASFAGSTSGLVSAKAAFTASCNVAMPWRCSARPPVCVFDALYLSANVEAEDIAALSAARSSTIDNAAVLDGKSVCYTLEGDIAVRTYRMLYSGTAALPVGPARTVYYMVATTRLHTGKRTRAMELLSIMQREGASIVFCGIGDGGRLALCAALTFLSFLTTACPALCASVLCITYGTPRLLLKEGPRLLAHTLPLSGQLLHFTQLPLIEHTPFVSDTVALSQRGSGVAVDTPPLGYANGFYRNMLLGAQCRVTDWTGLHFRLSSPDELSTEAEEAEVFDVVGQLRALSELFFPSSLQWLSPSVTSVSCRTEGPLLHVSVEGLTCITALG” the value was “not soluble”.
In the case of “MPPSPLDDRVVVALSRPVRPQDLNLCLDSSYLGSANPGSNSHPPVIATTVVSLKAANLTYMPSSSGSARSLNCGCSSASCCTVATYDKDNQAQTQAIAAGTTTTAIGTSTTCPANQMVNNNENTGSLSPSSGVGSPVSGTPKQLASIKIIYPNDLAKKMTKCSKSHLPSQGPVIIDCRPFMEYNKSHIQGAVHINCADKISRRRLQQGKITVLDLISCREGKDSFKRIFSKEIIVYDENTNEPSRVMPSQPLHIVLESLKREGKEPLVLKGGLSSFKQNHENLCDNSLQLQECREVGGGASAASSLLPQPIPTTPDIENAELTPILPFLFLGNEQDAQDLDTMQRLNIGYVINVTTHLPLYHYEKGLFNYKRLPATDSNKQNLRQYFEEAFEFIEEAHQCGKGLLIHCQAGVSRSATIVIAYLMKHTRMTMTDAYKFVKGKRPIISPNLNFMGQLLEFEEDLNNGVTPRILTPKLMGVETVV” it was “soluble”.
In the case of “MPPVCGRRCSRTGEIRGYSGSIVRRWKRVETRDGPRFRSSLAPHEAALLKNLAGAMIGLLDDRDSSSPSDELEEITGIKTGHAQRPGDPTLRRLLPDFYRPDDLDDDDPTAVDGSESFNAALRSLHEPEIIDAKRVAAQQLLDTVPDNGGRLELTESDANAWIAAVNDLRLALGVMLEIGPRGPERLPGNHPLAAHFNVYQWLTVLQEYLVLVLMGSR”, the “soluble on expression in E. coli” value was “not soluble”.
In the case of “MPQDVDFHIPLPGRQSPDHARAEAEQLAWPRSLGLIRSDAAAERHLRGGYADLASRFYPHATGADLDLGVDLMSWFFLFDDLFDGPRGENPEDTKQLTDQVAAALDGPLPDTAPPIAHGFADIWRRTCEGMTPAWCARSARHWRNYFDGYVDEAESRFWNAPCDSAAQYLAMRRHTIGVQPTVDLAERAGRFEVPHRVFDSAVMSAMLQIAVDVNLLLNDIASLEKEEARGEQNNMVMILRREHGWSKSRSVSHMQNEVRARLEQYLLLESCLPKVGEIYQLDTAEREALERYRTDAVRTVIRGSYDWHRSSGRYDAEFALAAGAQGYLEELGSSAH”, the “soluble on expression in E. coli” value is “soluble”.
Turning to “MPQLSPWQHYQKDLTRDGFSHDPAQEIAVKALQRVYEDLTAAEEPNSLFGKLFTSFGLTSAPAPTKGLYLWGGVGRGKTYLMDTFFDTLPGNQKLRAHFHRFMHQLHLDLDALKGTRDPLLVIAKQMAAKYRVICFDEFFVSDITDAMLLGTLFQALFKEGVVLVATSNIIPDDLYKNGLQRARFLPAIALINQHCEVLNVDSGIDYRLRTLEQAEIYHHPLDEQADTNLLRYFGQLAPEAEISTEAIEIEGRAISIRQQAQGVLLADFRALCDGPRSQRDYMELARIYHTVLVSGIEQMGAFLTGDDIARRFLAMVDEFYERNVKLIVSAQVPLEDIYADGLLSFEFRRCRSRLIEMQSHDYLKSEHLPAAALEHHHHHH”, the “soluble on expression in E. coli” value is given as “soluble”.
Regarding “MPQQKNFVTMPAQHQNKQPGIESLMNPLPQFEDPNYKGSEKLKGKNVLITGGDSGIGRAVSIAFAKEGANIAIAYLDEEGDANETKQYVEKEGVKCVLLPGDLSDEQHCKDIVQETVRQLGSLNILVNNVAQQYPQQGLEYITAEQLEKTFRINIFSYFHVTKAALSHLKQGDVIINTASIVAYEGNETLIDYSATKGAIVAFTRSLSQSLVQKGIRVNGVAPGPIWTPLIPSSFDEKKVSQFGSNVPMQRPGQPYELAPAYVYLASSDSSYVTGQMIHVNGGVIVNG”, the “soluble on expression in E. coli” value is on record as “not soluble”.
In the case of “MPRDNSSSSRRRRGSKRCPTGMSSNKTSRSTSSSSVTSSSGHGASSFSEDSSVRSVTNSVRSTRSAGSIMSMASAEASVVAPDLTIYHGDRKQSYQLADKGKMVVINRKNGVIVYMLRCVDGRRVYIEKSSEGASLILTNQRGKVIKALAGHY” it was “not soluble”.
Regarding “MPRGYKNPRVVPDNVERVISAYTPVPGTLAWGVVWEDPFAEFVRECARDLGLPATASDDVIRGNLRLIASFVAWVIHEYDCPLRRDEIFDYILAEAYAMSVIYVRDGHGKGTSNKVRGIRRSMLTKIGWKMNKHFGEPHKHTLPQEGALEPYKQWQLNKVDAWAGSQPNERRRRNARVAIALALGAGLRTSEIAGLTADDCEVTDSGMVLIHAPGYRGGEPRITVVDHRFEDTITDRLAELADLRAAGEPGQYLYCPHLLGRTTDMVNDYMKKKITSSGADCYLQPDLRRLRNTWITGHIKAGVEEGAICQAAGLKSLNQFRDLVDEAAKARAEQSYARLRGGEHRPVLRLVQG”, the “soluble on expression in E. coli” value is “not soluble”.
“MPRIITRPFLFSPLTLCISAVASAAKTAVKRKKLFTAVLALSWAFSVTAAERIVVAGGSLTELIYAMGAGERVVGVDETTSYPPETAKLPHIGYWKQLSSEGILSLRPDSVITWQDAGPQIVLDQLRAQKVNVVTLPRVPATLQQMYANIRQLAKTLQVPEQGEALVTQISQRLERVQQNVATKKAPVKAMFILSAGGSAPQVAGKGSVADAILSLAGAENVATHQQYKSYSAESLIAANPEVIVVTSQMVDGDINRLRSIAGITHTAAWKNQRIITVDQNLILGMGPRIADVVESLHQQLWPQ”: the “soluble on expression in E. coli” value was “not soluble”.
In the case of “MPRIVFDCLIDQPAARHLIERIDALTALLVRDNVVYSAHVDHQPQSPQPDSVREELTTTYLRDRGAETADELSDSVVALDELSLQRFTIVVDGLNGSLNETAMTYSRLLTPAARLSNDALDLTDEQRYEVPAAYPWTVFVSA” it was “not soluble”; in that of “MPRPSAGSHHNDKLHFKKGDTVIVLSGKHKGQTGKVLLALPRDQKVVVEGVNVITKNVKPSMTNPQGGQEQRELALHASKVALVDPETGKATRVRKQIVDGKKVRVAVASGKTID”, “soluble”; in that of “MPRQRRQGIVYDVREQGTARLIFDENRTKFDGVLETISGETMLVRGRVTSPTDLASTSATTDGSIVMDIDVVDGEEGSAFHVTGVKVLVDEHYAAIDSTAIKFEALDRLIGMKAAVEIQQHISPEIAYDSKEVFIGKMQIHLLTSHRPSPSSRRESVCAENNDIKILEVSDDFLA”, “not soluble”.
Regarding “MPRRNPLWLRLPGSSSPSSSSTTEELRLAALSPYSPNDDISSIPDSLEHSPAKTSDDGSEISRANFSSPSSPSRSPSKKVSWSLFDQVSLSGEEFLLPRRFEAIELNAGTSTRSTSISCSATDLLESDHVTIRKISLQDPATARREYRNIILCRLLPHPNILPISEAYEVDSTLYTVSEQMDGRLSDIVEERLTHFVVAKISHQILAAVAMMHQNGIAHGDLTLSTIYVNTDAELRLSSYGKSDDSSEHLDERYRDDLLSIGAIVSRFLMNEEEMFKFSKSRNLKDIDWRVVLEGSSDSGLLDFNARSLLFQLLEGRQSARDLLRHPYFKSFRAPQHQTVERKHTVVGQKTSDEVLDKLREELQRFNPFNMSEIML”, the “soluble on expression in E. coli” value is on record as “not soluble”.
In the case of “MPSFLEISPDKLNRLIGTPGAPRIIDVRTDEDFALDPRLVPGSIRRDHAEVASWADSIDADAVVVVCHRGAKLSHGVAAYLRHAGIEAESLAGGFEAWAAAGPAVPEAKLSRRDAQGRTVWVTRARPKIDRIACPWLIRRFIDPNAVFLFVPAPEVVAVGERFGAAPFDIEDVFWSHRGELCTFDVMVEEFGLASEPLLRLAQIVRAADTARLDLAPEASGLLAASLGLSRMYSDDLEQLEAGMLLYDAFFRWCRDATEETHNWPAPKKRALEHHHHHH”, the “soluble on expression in E. coli” value was “soluble”.
